Reference: the domain aggregation screens of Martell et al. (2025)

experiment: soluble fraction after stress (log2 fold change); higher = more stays soluble; pooled small domains, quantitative proteomics; settings: stress: 75 degC
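Note: 20 min heating vs room temperature control held 20 min.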

Point of comparison: “HMQPIQPNQAKYLDGLSSKYKGKGNHSQAAQLTALRDALNAGDHAKAREIYDKLDYEPQAEAAH”, “soluble fraction (log2)” value 0.364. Against it:
- HMQKITPDNWTYIRSLIRQKWSPDQIDQWLKKHPDVGFTVSRETIYQYVKEDRQKDGDLYLSLRRAGKSY — lower, -2.18
- HMQKLKINKYKDPKGEIRYYIASTIRNGNKSSTHNLLSLGKHSDLLKEHSDVEAYLKERLNEAMESGI — lower, -0.0843
- HMQKPDIEVDFAEGDMVVVTGGAWKDTAGVITGINMQKQTVTINVELFGRETPVEISFTEIKKA — lower, -0.117
- HMQKVPDAFKAEQVQTLITRLGVSRAELARTLDVSLSTVNKWASGAVEPKGSALVLLKVLWMHGFKAL — lower, -2.85
- HMQLDDDQKEELILKLIDSLDTTKKGAPLTELAREAAKSNIGESELEEITTSLLDKGLVYEPTIGKMKR — within 0.2 log units, 0.394
- HMQLDLNENEKIIFEILQNNKTMQLSNLKTQTELSNKGWDKAIKSLTKQGLAKVSKIDNELIVEFL — lower, -0.466
- HMQLKFTDLRKEILRMIWEGHGPQKAYDLLNKLQQTNPSAKPATVYRALDFLIGNGFIHKVASLNAFVG — lower, -0.59
- HMQLKKDTILSYIEEKLIDSYNSNKGFTTQEISVALNMQRTNVSAILNNLVKENKLVKTKGKPVRYFLSG — lower, -0.636
- HMQLTPAQHAILAHALEHSDGKIVWFPDNIKGGARKKVLDGLLNRALITTDGTDWFVAAEGYDAMGR — lower, -0.386
- HMQLTVAVLIKNISKGQVISQGFLGFEARPERQIRGAYTNISEVLGRKAKSNIAVGTILKARHLDT — lower, -2.87
- HMQNAMQKELIDAFQKAYPDLDITKIELVYGTYYEVEAMNSTTEFTYRYDQNSKTFILAEQDNADP — lower, -0.203
- HMQNELAEARSQLAERKNIDQAKLILMKKRNISEPEAYKLLRSHAMQTNRRVAEVAESIITAESLLG — lower, -0.0692
- HMQNGNLVDVYLNWRGKYYAIKMFFPNSKMPRRSDVQDQIVKVYPDARVQSFQVSKYVPGQPFL — lower, -2.62
- HMQNLSELAYVNLRDALMQGQMKPGEELPLRPISRSFGISATPMREALLRLVTESALEMDSRGRISVP — lower, -0.347
- HMQNPYDTLGVSRDSTDAEIKKAYRKLAMEHHPDKGGDSQRFAEINNAYDNIKDMSSRQNFENDPSNFQ — within 0.2 log units, 0.266
- HMQNVFARKNLTSVSVDKLGEEEILLFKQSFESKNLTSSEALRDLSKKGMSEAELRKLKVRLTQL — lower, -0.287
- HMQNWFADPKFEMFEDYGDAQSFYDTETKNIYVVMAEYGQKGSNTIQEITPDSEEYIPNYEKYKEYMENK — within 0.2 log units, 0.214
- HMQNYLEFIGNELKALTSIPSPSGYTKDVAAYLMKTLSDMGYEPQLSNKGNVFVTIGGEGNPLVLAAHVD — lower, 0.0285
- HMQNYLEVLRLHELGMGQRKIAQQVHTSRDTIRKIIAIAENQGLNYSNLIGKTDNELSKVFG — lower, -0.622
- HMQPAGEGAILRYLSSGAVKGIGPVMAREIVRRFGTDTFRVMEQEPEKLLKVKGITEQRLQTIMESYQD — lower, -0.198
- HMQPDPAFVAWVDANPWYKENRTLRALVHDYAEEVKRQEPALIGTAFLDRVKQLVQSEHPELFD — lower, -0.234
- HMQPETIEDATNLYLEAARATLQLIEQNNVIARDVKRLLEHLDNDMARIETLLAEMLSRRDHWLRHIH — lower, 0.148
- HMQPNVTRERILAAAMTVFAQKGWQKTSLDEVAAAAGMTKGAIYWHFRNKNDLFFALLDARLQRD — lower, -2.16
- HMQQAVTMQKPGRLLRNADGNGGAVRDLDVGMMLYPTGNRSELMWEVDDELGNRGWVNSTLFGLS — lower, 0.013
- HMQQDGSSSLGENMLNQELQARGVVPSEIPQEVWERVIQEAGKKSKREIYADIGLGRSLAAGFAQRLAA — lower, 0.145
- HMQQDVLKLKSGGNYKGEYINIESAYVLFKPEGGNATQRIKVNEIQMLKLADGTEVIFGGRVK — lower, -0.237
- HMQQEPNFYIVDGNTNQIVDRYYAPDSNVAHQYLGQWRQQHDPQETGNYRYGRLSSETEERYRNLAA — within 0.2 log units, 0.22
